In patent publication US20210179728A1 (OSE IMMUNOTHERAPEUTICS, published 2021):
Changes are numbered by the printed parent chain. Names and notes keep the numbering of the source. Values belong to the binder of their own block, whether it stands above or below them.

Key:
[1] = target: T1, recombinant hSIRPb-His (Antibodies-online, reference ABIN3077231) (human, UniProt Q5TFQ8 30-371); test: BLI (Blitz); SIRPb-His on Ni-NTA biosensor, antibody at 20 ug/ml [B, table A]
T1 construct: also called SIRPb-His (Blitz); not shown: His tag
Experimental: FIG. 7. (A) Affinity analysis by Blitz of anti-SIRP antibodies on human SIRPb recombinant protein. SIRPb-His recombinant protein was immobilized onto a NINTA biosensor and the indicated antibodies were added at 20 μg/ml. […] (B) Binding analysis of anti-SIRP antibodies (human SIRPb-His coating and anti-human kappa detection).
(§1) Method: This method was performed with a Blitz (Forte Bio; USA; reference C22-2 No 61010-1). Recombinant hSIRPb-His (Antibodies-online; USA; reference ABIN3077231) was immobilized at 10 μg/ml by histidine tail into a Ni-NTA biosensor (Forte Bio; USA; reference 18-0029) for 30 seconds. Then, an anti-SIRPa antibody was associated at 20 μg/mL for 120 seconds. The dissociation of anti-SIRPa antibody was made in kinetics buffer for 120 seconds. Analysis of data was made with the Blitz pro 1.2 software, which calculated association constant (ka) and dissociation constant (kd) and determined the affinity constant KD […].

[2] = target: T2, recombinant hSIRPa (Sino Biologicals, reference 11612-H08H) (human, UniProt P78324 31-370); test: ELISA on immobilized hSIRPa-His, anti-human IgG detection, second experiment; second experiment
T2 construct: also called SIRPa-His; human SIRPa-His; not shown: His tag (histidine tail)
Experimental: (§2) Method: The binding activity of the anti-SIRPa antibodies was assessed by ELISA.

[3] = target: T2, recombinant hSIRPa (Sino Biologicals, …); test: competition ELISA on immobilized SIRPa-His; competitor biotinylated CD47-Fc at 6 ug/ml, streptavidin-peroxidase [second experiment table]
Experimental: (§3) Method: For competitive ELISA assay, recombinant hSIRPa (Sino Biologicals, Beijing, China; reference 11612-H08H) was immobilized on plastic at 0.5 μg/ml in carbonate buffer (pH9.2).

[4] = target: T3, recombinant hSIRPg-His (Sino Biologicals, reference 11828-H08H) (human, UniProt Q9P1W8 29-360); test: BLI (Blitz); SIRPg-His on Ni-NTA biosensor, antibody at 10 ug/ml or 20 ug/ml (Example 9) [B, table A]
T3 construct: also called human SIRPg-His; not shown: His tag
Experimental: FIG. 8. (A) Affinity analysis by Blitz of anti-SIRP antibodies on human SIRPg recombinant protein. SIRPg-His recombinant protein was immobilized onto a NINTA biosensor and the indicated antibodies were added at 10 μg/ml. […] (B) Binding analysis by ELISA assay of anti-SIRP antibodies on SIRPg (human SIRPg-His coating and anti-human kappa detection).
as §1, with “hSIRPg-His (Sino Biologicals, Beijing, China;” for “hSIRPb-His (Antibodies-online; USA;”, “11828-H08H)” for “ABIN3077231)”

[5] = target: T2, recombinant hSIRPa (Sino Biologicals, …); test: ELISA on immobilized hSIRPa-His, anti-human IgG detection, third experiment
Experimental: as §2

[6] = target: T2, recombinant hSIRPa (Sino Biologicals, …); test: SPR (Biacore); SIRPa-His immobilized on CM5 chip, antibody injected
Experimental: FIG. 2. Affinity analysis by Biacore of anti-SIRP antibodies on human SIRPa recombinant protein. SIRPa-His recombinant protein was immobilized onto a CM5 chip at 5 μg/ml (500 RU) and the indicated antibodies were added at different concentration.
Method: Recombinant hSIRPa (Sino Biologicals, Beijing, China; reference 11612-H08H) was immobilized into a CM5 sensor chip (GeHealthcare; France) at 5 μg/ml (500 RU) and antibodies were applied at different concentrations with a flow rate of 40 μl/min. Analysis was performed with a BIAcore 3000 (Biacore, GeHealthcare).

[7] = target: T2, recombinant hSIRPa (Sino Biologicals, …); test: ELISA on immobilized hSIRPa-His, anti-human IgG detection, first experiment; first experiment
Experimental: as §2

[8] = target: T4, 4-1BBFcHis (UniProt Q07011 24-186); test: ELISA: modified antibody (concentration on the axis) captured on SIRPa-His, then 4-1BBFcHis, detected with mouse anti-His [panel 4-1BBL]
T4 construct: not shown: Fc and His tag; not specified
Description: (§4) FIG. 24. Ligand binding assay with the different modified anti-SIRPa antibodies by ELISA.

[9] = target: T2, recombinant hSIRPa (Sino Biologicals, …); test: ELISA on immobilized SIRPa-His, peroxidase anti-human IgG, DO 450nm [panel 4-1BBL]
Experimental: (§5) Method: For ELISA assay, recombinant hSIRPa (Sino Biologicals, Beijing, China; reference 11612-H08H) was immobilized on plastic at 0.5 μg/ml in carbonate buffer (pH9.2) and different modified anti-SIRPa antibodies were added to measure binding to SIRPa.

[10] = target: T2, recombinant hSIRPa (Sino Biologicals, …); test: competition ELISA on coated SIRPa-His; competitor biotinylated CD47-Fc at 6 ug/ml, streptavidin-peroxidase [panel CD86]
Experimental: as §3

[11] = target: T5, CTLA4-Fc (human, UniProt P16410 36-161, limits assumed); test: ELISA: modified antibody (concentration on the axis) captured on SIRPa-His, then CTLA4-Fc, detected with mouse anti-human CTLA4 [panel CD86]
T5 construct: not shown: Fc; not specified
Description: as §4

[12] = target: T2, recombinant hSIRPa (Sino Biologicals, …); test: ELISA on immobilized SIRPa-His, peroxidase anti-human IgG, DO 450nm [panel CD86]
Experimental: as §5

[13] = target: T2, recombinant hSIRPa (Sino Biologicals, …); test: ELISA on immobilized SIRPa-His, anti-human detection, DO 450nm [B,C, panel B table]
[14] = target: T2, recombinant hSIRPa (Sino Biologicals, …); test: ELISA on immobilized SIRPa-His, peroxidase anti-human IgG, DO 450nm [all panels]
Experimental: as §5

Kd [1]: 15.7 nM
koff [1]: 0.00138 s⁻¹
kon [1]: 88400 M⁻¹ s⁻¹
EC50 [2]: 4.06 ng/mL
IC50 [3]: 304 ng/mL
Kd [4]: 64.8 nM
koff [4]: 0.00319 s⁻¹
kon [4]: 49300 M⁻¹ s⁻¹
EC50 [5]: 2.74 ng/mL
Kd [6]: 0.344 nM
koff [6]: 5.14e-05 s⁻¹
kon [6]: 149000 M⁻¹ s⁻¹
EC50 [7]: 2.9 ng/mL
B1: chimeric mouse/human 18D5 antibody (antibody, human IgG4 S228P, kappa)
heavy: not shown
light: DVVMTQTPLSLPVSLGDQASISCRSSQSLVHSYGNTYLYWYLQKPGQSPKLLIYRVSNRFSGVPDRFSGSGSGTDFTLKISRVEAEDLGVYFCFQGTHVPYTFGSGTKLEIKRTVAAPSVFIFPPSDEQLKSGTASVVCLLNNFYPREAKVQWKVDNALQSGNSQESVTEQDSKDSTYSLSSTLTLSKADYEKHKVYACEVTHQGLSSPVTKSFNRGEC
notes: mouse variable domains on human IgG4m (S228P) / kappa constant domains; also called chimeric antibody; chimeric 18D5

EC50 (read off the curve) [8]: ~200 ng/mL
EC50 (read off the curve) [9]: ~7 ng/mL
B2: modified anti-SIRPa HEFLB antibody with ECD of 4-1BBL on the light chain (antibody, human IgG4 S228P, kappa)
heavy: not shown
light: DVVMTQSPLSLPVTLGQPASISCRSSQSLVHSYGNTYLYWFQQRPGQSPRLLIYRVSNRFSGVPDRFSGSGSGTDFTLKISRVEAEDVGVYYCFQGTHVPYTFGGGTKVEIKRTVAAPSVFIFPPSDEQLKSGTASVVCLLNNFYPREAKVQWKVDNALQSGNSQESVTEQDSKDSTYSLSSTLTLSKADYEKHKVYACEVTHQGLSSPVTKSFNRGECGGGGSGGGGSGGGGSREGPELSPDDPAGLLDLRQGMFAQLVAQNVLLIDGPLSWYSDPGLAGVSLTGGLSYKEDTKELVVAKAGVYYVFFQLELRRVVAGEGSGSVSLALHLQPLRSAAGAAALALTVDLPPASSEARNSAFGFQGRLLHLSAGQRLGVHLHTEARARHAWQLTQGATVLGLFRVTPEIPAGLPSPRSE
notes: as m32, ECD of 4-1BBL; also called VH+VLprot (4-1BBL); HEF + LB-4-1BBL

IC50 (read off the curve) [10]: ~200 ng/mL
binding result [11]: binds
EC50 (read off the curve) [12]: ~8 ng/mL
B3: modified anti-SIRPa HEFLB antibody with ECD of CD86 on the light chain (antibody, human IgG4 S228P, kappa)
heavy: not shown
light: DVVMTQSPLSLPVTLGQPASISCRSSQSLVHSYGNTYLYWFQQRPGQSPRLLIYRVSNRFSGVPDRFSGSGSGTDFTLKISRVEAEDVGVYYCFQGTHVPYTFGGGTKVEIKRTVAAPSVFIFPPSDEQLKSGTASVVCLLNNFYPREAKVQWKVDNALQSGNSQESVTEQDSKDSTYSLSSTLTLSKADYEKHKVYACEVTHQGLSSPVTKSFNRGECGGGGSGGGGSGGGGSAPLKIQAYFNETADLPCQFANSQNQSLSELVVFWQDQENLVLNEVYLGKEKFDSVHSKYMGRTSFDSDSWTLRLHNLQIKDKGLYQCIIHHKKPTGMIRIHQMNSELSVLANFSQPEIVPISNITENVYINLTCSSIHGYPEPKKMSVLLRTKNSTIEYDGVMQKSQDNVTELYDVSISLSVSFPDVTSNMTIFCILETDKTRLLSSPFSIELEDPQPPPDH
notes: as m32, ECD of CD86; also called VH+VLprot (CD86); HEF + LB-CD86

EC50 [13]: 4.61 ng/mL
B4: HELA (antibody, V domains shown)
VH: EVQLVQSGAEVKKPGESLRISCKASGYSFTSYWVHWVRQMPGKGLEWMGNIDPSDSDTHYSPSFQGHVTLSVDKSISTAYLQLSSLKASDTAMYYCVRGGTGTLAWFAYWGQGTLVTVSS
VL: DVVMTQSPLSLPVTLGQPASISCRSSQSLVHSYGNTYLYWYQQRPGQSPRLLIYRVSNRFSGVPDRFSGSGSGTDFTLKISRVEAEDVGVYFCFQGTHVPYTFGGGTKVEIK
notes: also called humanized 18D5 variant HELA

EC50 [2]: 5.6 ng/mL
B5: HCLA (antibody, human IgG4 S228P, kappa, V domains shown)
VH: B4 VH with L104M
VL: DVVMTQSPLSLPVTLGQPASISCRSSQSLVHSYGNTYLYWYQQRPGQSPRLLIYRVSNRFSGVPDRFSGSGSGTDFTLKISRVEAEDVGVYFCFQGTHVPYTFGGGTKVEIKR
notes: humanized 18D5 variant; also called humanized 18D5 variant HCLA

EC50 (read off the curve) [14]: ~10 ng/mL
Kd [1]: 86.9 nM
koff [1]: 0.00171 s⁻¹
kon [1]: 19400 M⁻¹ s⁻¹
IC50 [3]: 186 ng/mL
Kd [6]: 0.289 nM
koff [6]: 0.000189 s⁻¹
kon [6]: 654000 M⁻¹ s⁻¹
EC50 [7]: 4.4 ng/mL
B6: HEFLB (antibody, human IgG4 S228P, kappa)
heavy: not shown
light: DVVMTQSPLSLPVTLGQPASISCRSSQSLVHSYGNTYLYWFQQRPGQSPRLLIYRVSNRFSGVPDRFSGSGSGTDFTLKISRVEAEDVGVYYCFQGTHVPYTFGGGTKVEIKRTVAAPSVFIFPPSDEQLKSGTASVVCLLNNFYPREAKVQWKVDNALQSGNSQESVTEQDSKDSTYSLSSTLTLSKADYEKHKVYACEVTHQGLSSPVTKSFNRGEC
notes: humanized 18D5 variant; IgG4m (S228P) / kappa; also called anti-SIRPa HEFLB

IC50 (read off the curve) [10]: ~200 ng/mL
binding result [11]: binds
EC50 (read off the curve) [12]: ~9 ng/mL
B7: modified anti-SIRPa HEFLB antibody with ECD of CD86 on the heavy chain (antibody, human IgG4 S228P, kappa)
heavy: not shown
light: B6 light
notes: as m25, ECD of CD86; also called VHprot+VL (CD86); VH-CD86
